Four molecules from US20220273710A1 (AUTOLUS, published 2022) can be followed below.

Usually Kd stands for a measure of binding affinity in units of concentration. For orientation: koff means the first-order rate constant of dissociation. Usually kon stands for the second-order rate constant of association.

T1: Recombinant purified CD79b (R&D systems) (human, UniProt P40259 29-159)
T1 construct: Bought protein
T1 sequence: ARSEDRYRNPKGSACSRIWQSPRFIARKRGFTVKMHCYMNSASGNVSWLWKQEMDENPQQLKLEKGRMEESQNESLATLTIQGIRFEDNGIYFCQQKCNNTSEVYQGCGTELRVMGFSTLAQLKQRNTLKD

B1: Polatuzumab (antibody, V domains shown)
VH: EVQLVESGGGLVQPGGSLRLSCAASGYTFSSYWIEWVRQAPGKGLEWIGEILPGGGDTNYNEIFKGRATFSADTSKNTAYLQMNSLRAEDTAVYYCTRRVPIRLDYWGQGTLVTVSS
VL: DIQLTQSPSSLSASVGDRVTITCKASQSVDYEGDSFLNWYQQKPGKAPKLLIYAASNLESGVPSRFSGSGSGTDFTLTISSLQPEDFATYYCQQSNEDPLTFGQGTKVEIKR
notes: polatuzumab'; also called humanised anti-CD79b 2F2; anti-CD79b antibody polatuzumab
B2: 3H2 (antibody, mouse IgG2a, V domains shown)
VH: AVQLVESGGGLVQPKESLKLSCAASGFTFSHTAMYWVRQAPGKGLECVARIRIQPKNYATYYADSVKGRFTISRDDSKSMVYLQMDNLKTEDTAMYYCTAAGFGFDYWGQGVMVTVSS
VL: DVVLTQTPVSLSVTLGDQASISCRSSQSLEYSDGNTYLEWYLQKPGQSPQLLIYEVSKRFSGVPDRFIGSGSGTDFTLKISRVEPEDLGIYYCLQATHDPFTFGSGTKLEIK
notes: also called 3H2 antibody; clone 3H2
B3: 2E8 (antibody, mouse IgG2a, V domains shown)
VH: AVQLVESGGGLVQPKESLKISCAASGFTFSNAAMYWVRQAPGKGLEWVARIRTKPNNYATNYADSVKGRFTISRDDSKSMVYLQMDNLKTEDTAMYYCTYYDGSSYAMDAWGQGTSVTVSS
VL: DVVLTQTPVSLSVTLGDQASISCRSSQSLEYSDGYTYLDWYLQKPGQSPQLLIYEVSNRFSGVPDRFIGSGSGTDFTLKISRVEPEDLGVYYCFQATHDPYTFGAGTKLEIK
notes: also called 2E8 antibody; clone 2E8
B4: 7G4 (antibody, mouse IgG2a, V domains shown)
VH: AVQLVESGGGLVQPKESLKISCAASGFTFSNAAMYWVRQAPGKGLEWVARIRTKPNNYATNYADSVKGRFTISRDDSKSMVYLQMDNLKTEDTAMYYCTYYDGSSYAMDAWGQGTSVTVSS
VL: DVVLTQTPVSLSVTLGDQASISCRSSQSLEYSDGYTYLDWYLQKPGQSPQLLIYEISNRFSGVPDRFIGSGSGTDFTLKISRVEPEDLGVYYCFQATHDPYTFGAGTKLEIK
notes: also called 7G4 antibody; clone 7G4

This test addresses T1, Recombinant purified CD79b (R&D systems). Nature of the test: SPR, Biacore 8K, antibody immobilised on CM5 chip, CD79b as analyte, 25° C, 1:1 Langmuir fit. The source says: Recombinant anti-CD79b antibodies Polatuzumab and newly generated antibodies 2E8, 3H2, and 7G4 were immobilised on individual flow cells on a Series S CM5 sensor chip (GE Healthcare) to a density of 150-280 RU using a Biacore 8K instrument. HBS-P+buffer was used as running buffer under all experimental conditions. Recombinant purified CD79b (R&D systems) at known concentrations was used as the ‘analyte’ and injected over the respective flow cells with 150s contact time and 300s dissociation, at 30 μl/minute of flow rate and a constant temperature of 25° C. In each experiment, flow cell 1 was unmodified and used for reference subtraction. A ‘0 concentration’ sensorgram of buffer alone was used as a double reference subtraction to factor for drift. Data were fit to a 1:1 Langmuir binding model.
Background: Surface plasmon resonance follows binding to a sensor surface in real time, without labels.
On to B1, for which the Kd came out at 6.88 nM, the koff came to 0.00806 s⁻¹ and the on-rate constant (kon) was found to be 1.17e+06 M⁻¹ s⁻¹.

With B2, the Kd was determined as 2.62 nM, the koff stood at 0.00431 s⁻¹ and the kon turned out to be 1.64e+06 M⁻¹ s⁻¹.

Take B3: the Kd was found to be 7.11 nM, the koff is 0.0805 s⁻¹ and the kon came to 1.13e+07 M⁻¹ s⁻¹.

On to B4, for which the Kd worked out at 3.1 nM.
